Source: patent US20090196913A1 (published 2009)

Biological target: human αVβ3/5 integrins on human tumor cells (A375.S2, MDA-MB-231, A2780, HT29, A549) (human, UniProt P06756 31-1048)
Test: cell-based or functional assay

Sequence of human αVβ3/5 integrins on human tumor cells (A375.S2, MDA-MB-231, A2780, HT29, A549) (P06756 31-1048): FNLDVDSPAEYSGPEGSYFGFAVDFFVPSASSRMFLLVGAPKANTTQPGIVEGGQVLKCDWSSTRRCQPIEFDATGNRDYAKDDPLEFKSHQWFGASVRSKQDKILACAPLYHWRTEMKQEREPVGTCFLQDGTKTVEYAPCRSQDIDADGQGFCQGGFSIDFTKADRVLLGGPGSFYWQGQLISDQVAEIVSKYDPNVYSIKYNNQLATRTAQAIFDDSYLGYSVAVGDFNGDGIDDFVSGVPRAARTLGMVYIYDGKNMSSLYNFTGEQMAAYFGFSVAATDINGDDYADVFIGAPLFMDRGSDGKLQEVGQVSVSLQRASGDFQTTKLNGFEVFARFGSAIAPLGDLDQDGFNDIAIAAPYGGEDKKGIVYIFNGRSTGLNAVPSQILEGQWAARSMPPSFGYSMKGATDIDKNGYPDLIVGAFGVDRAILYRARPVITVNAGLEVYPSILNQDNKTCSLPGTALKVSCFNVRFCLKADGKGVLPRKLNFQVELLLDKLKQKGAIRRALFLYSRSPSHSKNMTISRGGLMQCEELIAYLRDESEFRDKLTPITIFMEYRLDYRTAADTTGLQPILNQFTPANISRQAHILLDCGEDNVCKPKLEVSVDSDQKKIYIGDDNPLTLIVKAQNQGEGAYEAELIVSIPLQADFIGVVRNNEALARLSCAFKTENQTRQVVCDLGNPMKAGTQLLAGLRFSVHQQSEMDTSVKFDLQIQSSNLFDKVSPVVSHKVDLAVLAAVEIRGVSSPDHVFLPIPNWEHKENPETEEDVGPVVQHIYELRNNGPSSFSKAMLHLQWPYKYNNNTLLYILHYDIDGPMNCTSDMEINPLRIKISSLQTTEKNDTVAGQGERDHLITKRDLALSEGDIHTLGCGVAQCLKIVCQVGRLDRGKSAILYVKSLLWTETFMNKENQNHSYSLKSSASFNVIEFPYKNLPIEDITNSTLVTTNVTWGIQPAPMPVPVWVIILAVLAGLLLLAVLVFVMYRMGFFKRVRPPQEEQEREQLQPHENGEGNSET

B1: CNTO95 Fab′ (from pepsin cleavage, reduction and reoxidation) conjugated to PEG-DSPE on the surface of liposomes (Fab, V domains shown)
VH: QVQLVESGGGVVQPGRSRRLSCAASGFTFSRYTMHWVRQAPGKGLEWVAVISFDGSNKYYVDSVKGRFTISRDNSENTLYLQVNILRAEDTAVYYCAREARGSYAFDIWGQGTMVTVSS
VL: EIVLTQSPATLSLSPGERATLSCRASQSVSSYLAWYQQKPGQAPRLLIYDASNRATGIPARFSGSGSGTDFTLTISSLEPEDFAVYYCQQRSNWPPFTFGPGTKVDIKR
modifications: free sulfhydryl near the C-terminus conjugated to maleimide-PEG-DSPE inserted in the liposome
In the case of B1, the “Increase (ratio of IC50 of liposome-entrapped doxorubicin to IC50 of 90:1 integrin-targeted liposomes), breast cancer MDA-MB-231” value is reported as 5, the “Increase (ratio of IC50 of liposome-entrapped doxorubicin to IC50 of 90:1 integrin-targeted liposomes), colon cancer HT29” value is reported as 1.1 and the “Increase (ratio of IC50 of liposome-entrapped doxorubicin to IC50 of 90:1 integrin-targeted liposomes), lung cancer A549” value is reported as 1. The “Increase (ratio of IC50 of liposome-entrapped doxorubicin to IC50 of 90:1 integrin-targeted liposomes), melanoma A375.S2” value was 29 and the “Increase (ratio of IC50 of liposome-entrapped doxorubicin to IC50 of 90:1 integrin-targeted liposomes), ovarian cancer A2780” value was 29.
